Common to all, as to test: FACS, 1 ug/mL antibody, transfected 293F cells
On the technique in general: A flow cytometer gives signals particle by particle.

The target in one test is T1, Variant 7: xPro1.FL-x7 (human; mouse).
T1 construct: Chimeric full-length LAG-3 on transfected 293F cells
T1 chain: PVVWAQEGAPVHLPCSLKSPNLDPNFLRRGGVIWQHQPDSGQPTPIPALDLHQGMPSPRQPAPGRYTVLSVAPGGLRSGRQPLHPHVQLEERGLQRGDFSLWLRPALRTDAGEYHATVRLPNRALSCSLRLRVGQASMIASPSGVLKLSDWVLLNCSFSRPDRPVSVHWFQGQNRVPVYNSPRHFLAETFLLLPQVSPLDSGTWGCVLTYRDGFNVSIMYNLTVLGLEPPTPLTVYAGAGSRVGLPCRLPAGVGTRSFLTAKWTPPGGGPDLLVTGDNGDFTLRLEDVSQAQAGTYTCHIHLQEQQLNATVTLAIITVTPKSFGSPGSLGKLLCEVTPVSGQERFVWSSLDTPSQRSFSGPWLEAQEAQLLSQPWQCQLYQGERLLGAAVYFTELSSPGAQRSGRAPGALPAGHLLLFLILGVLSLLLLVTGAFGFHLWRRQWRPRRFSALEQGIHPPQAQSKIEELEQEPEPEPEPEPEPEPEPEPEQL

In test [1] the target is T2, full-length mouse LAG-3 on cells (mouse, UniProt Q61790 24-521).
T2 construct: also called mPro1.FL; murine LAG-3
T2 sequence: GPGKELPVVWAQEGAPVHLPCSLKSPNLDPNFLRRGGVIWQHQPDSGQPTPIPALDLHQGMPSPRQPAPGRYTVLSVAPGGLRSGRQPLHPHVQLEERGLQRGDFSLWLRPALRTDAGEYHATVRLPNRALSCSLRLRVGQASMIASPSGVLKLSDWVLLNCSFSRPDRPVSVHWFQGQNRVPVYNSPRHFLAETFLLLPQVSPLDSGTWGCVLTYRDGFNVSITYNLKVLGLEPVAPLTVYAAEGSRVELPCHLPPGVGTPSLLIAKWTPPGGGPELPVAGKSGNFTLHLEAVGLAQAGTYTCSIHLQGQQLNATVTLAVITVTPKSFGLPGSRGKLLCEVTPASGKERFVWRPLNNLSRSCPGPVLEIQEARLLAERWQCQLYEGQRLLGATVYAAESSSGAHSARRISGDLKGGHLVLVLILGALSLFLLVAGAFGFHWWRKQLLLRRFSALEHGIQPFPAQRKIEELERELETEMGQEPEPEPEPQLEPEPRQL

The next test deals with T3, Variant 8: xPro1.FL-x8 (human; mouse).
T3 construct: Chimeric full-length LAG-3 on transfected 293F cells
T3 chain: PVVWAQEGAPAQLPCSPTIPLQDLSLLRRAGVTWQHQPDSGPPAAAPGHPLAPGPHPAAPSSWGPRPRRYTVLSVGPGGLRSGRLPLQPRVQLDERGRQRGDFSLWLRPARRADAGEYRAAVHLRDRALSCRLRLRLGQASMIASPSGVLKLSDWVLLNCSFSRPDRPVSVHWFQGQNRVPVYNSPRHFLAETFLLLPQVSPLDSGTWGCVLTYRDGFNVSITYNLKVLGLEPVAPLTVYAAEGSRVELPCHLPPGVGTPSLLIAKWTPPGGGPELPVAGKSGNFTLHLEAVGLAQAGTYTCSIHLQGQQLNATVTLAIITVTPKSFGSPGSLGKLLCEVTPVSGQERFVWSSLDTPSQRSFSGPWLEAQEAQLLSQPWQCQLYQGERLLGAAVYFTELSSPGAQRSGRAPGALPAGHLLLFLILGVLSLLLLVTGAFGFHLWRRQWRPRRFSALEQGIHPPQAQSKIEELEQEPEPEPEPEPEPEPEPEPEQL

The target of a further test is T4, Variant 4: xPro1.FL-x4 (human; mouse).
T4 construct: Chimeric full-length LAG-3 on transfected 293F cells
T4 chain: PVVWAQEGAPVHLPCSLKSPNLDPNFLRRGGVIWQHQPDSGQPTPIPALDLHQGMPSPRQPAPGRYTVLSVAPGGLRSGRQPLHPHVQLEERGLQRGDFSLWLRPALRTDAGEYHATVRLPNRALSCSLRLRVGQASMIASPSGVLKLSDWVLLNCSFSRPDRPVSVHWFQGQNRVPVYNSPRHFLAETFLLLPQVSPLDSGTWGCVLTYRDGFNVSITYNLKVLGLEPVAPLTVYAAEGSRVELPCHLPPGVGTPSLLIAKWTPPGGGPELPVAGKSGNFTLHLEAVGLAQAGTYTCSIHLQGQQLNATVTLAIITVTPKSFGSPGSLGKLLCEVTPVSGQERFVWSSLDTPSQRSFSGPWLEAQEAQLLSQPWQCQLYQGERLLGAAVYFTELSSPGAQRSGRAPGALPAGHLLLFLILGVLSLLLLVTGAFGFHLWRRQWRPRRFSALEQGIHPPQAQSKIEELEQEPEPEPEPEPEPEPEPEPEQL

B1: 1.53.3-uAb-IgG4k (antibody, V domains shown)
VH: QVQLQQWGAGLLKPSETLSLTCGVYGGSFSGYYWSWIRQPPGMGLEWIGEINHRGNTNYNPSLKSRVTISEDTSKNQFSLRLSSVTAADTAVYFCTRGEDYSDYDYYGDFWGQGTLVTVSS
VL: EIVLTQSPATLSLSQGERATLSCRASQSISSYLAWYQQKPGQAPRLLIYAASNRATGIPARFSGSGSGTDFTLTISSLEPEDFAIYYCQQRSNWPLTFGGGTKVEIK
notes: Fully human antibody from OMT rats; IgG4 kappa by its name
On to B1, for which the MFI with Variant 7: xPro1.FL-x7 turned out to be 39.3; in test [1], 43.9; with Variant 8: xPro1.FL-x8 it was 7430; in the test with Variant 4: xPro1.FL-x4, 41. The “PE+ %” value with Variant 7: xPro1.FL-x7 came to 1.52%; in test [1] it was 1.1%; with Variant 8: xPro1.FL-x8, 97.6%; with Variant 4: xPro1.FL-x4, 1.42%.

(Values after patent US20200407442A1 (WUXI BIOLOGICS IRELAND, published 2020).)
